Experimental data: PMC3046144

Target: H5N1 A/Vietnam/1203/2004 HA1 (1-330) protein from 293 Flp-In cells (influenza A virus A/Vietnam/1203/2004 (H5N1))
Experiment: SEC

Substance: H5N1 A/Vietnam/1203/2004 HA1 (1-330) protein from 293 Flp-In cells (domain or fragment)
- stoichiometry N: 3
